Measurements: the supplement of paper PMC10567573

B1: ANKRD40 (parent)
chain: YQELLRVCCCELGVNPDQVEKIRK

Variants of: B1
Assay: protein stability index of a GFP-peptide fusion (GPS, HEK-293T) (PSI 1-6); higher = more stable
Details: c terminus: a fixed tail appended
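Further: lentivirally expressed fusions sorted by FACS into six bins by GFP to DsRed ratio, PSI derived from sequencing read proportions per bin multiplied by bin number.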

Compared with YQELLRVCCCELGRNPDQVEKIRK, YQELLRVCCCELGFNPDQVEKIRK is higher in protein stability index: 1.5 for the first, 2.27 for the second.

First: YQELLRVCCCELGSNPDQVEKIRK
Second: YQELLRVCCCELGANPDQVEKIRK
The protein stability index of the first is higher: 2.32 for the first, 1.99 for the second.

First: YQELLRVCCCELGYNPDQVEKIRK
Second: YQELLRVCCCELGDNPDQVEKIRK
The protein stability index of the first is lower: 2.13 for the first, 2.88 for the second.

First: YQELLRVCCCELGENPDQVEKIRK
Second: YQELLRVCCCELGTNPDQVEKIRK
The protein stability index of the first is higher: 2.72 for the first, 1.99 for the second.

Compared with YQELLRVCCCELGNNPDQVEKIRK, YQELLRVCCCELGVNPDQFEKIRK is higher in protein stability index: 1.85 for the first, 2.19 for the second.

Going from YQELLRVCCCELGVNPDQMEKIRK to YQELLRVCCCELGVNPDQIEKIRK, the protein stability index falls from 2.37 to 2.25.

Compared with YQELLRVCCCELGVNPDQNEKIRK, YQELLRVCCCELGVNPDQDEKIRK is higher in protein stability index: 1.34 for the first, 1.66 for the second.

First: YQELLRVCCCELGVNPDQLEKIRK
Second: YQELLRVCCCELGVNPDQCEKIRK
The protein stability index of the first is higher: 2.2 for the first, 2.1 for the second.

Going from YQELLRVCCCELGVNPDQQEKIRK to YQELLRVCCCELGVNPDQREKIRK, the protein stability index falls from 2.29 to 1.6.

Going from YQELLRVCCCELGVNPDQPEKIRK to YQELLRVCCCELGVNPDQKEKIRK, the protein stability index rises from 2.19 to 2.68.

Compared with YQELLRVCCCELGVNPDQEEKIRK, YQELLRVCCCELGVNPDQHEKIRK is lower in protein stability index: 2.51 for the first, 2.27 for the second.

Going from YQELLRVCCCELGVNPDQAEKIRK to YQELLRVCCCELGVNPDQGEKIRK, the protein stability index falls from 1.79 to 1.64.

Compared with YQELLRVCCCILGVNPDQVEKIRK, YQELLRVCCCDLGVNPDQVEKIRK is higher in protein stability index: 1.49 for the first, 1.89 for the second.

Going from YQELLRVCCCLLGVNPDQVEKIRK to YQELLRVCCCVLGVNPDQVEKIRK, the protein stability index falls from 2 to 1.56.

First: YQELLRVCCCTLGVNPDQVEKIRK
Second: YQELLRVCCCHLGVNPDQVEKIRK
The protein stability index of the first is higher: 1.98 for the first, 1.79 for the second.

Compared with YQELLRVCCCYLGVNPDQVEKIRK, YQELLRVCCCMLGVNPDQVEKIRK is higher in protein stability index: 1.27 for the first, 2.03 for the second.

Going from YQELLRVCCCRLGVNPDQVEKIRK to YQELLRVCCCPLGVNPDQVEKIRK, the protein stability index rises from 1.32 to 1.94.

First: YQELLRVCCCFLGVNPDQVEKIRK
Second: YQELLRVCCCSLGVNPDQVEKIRK
The protein stability index of the first is higher: 2.19 for the first, 1.22 for the second.

Going from YQELLRVCCCCLGVNPDQVEKIRK to YQELLRVCCCALGVNPDQVEKIRK, the protein stability index falls from 2.62 to 1.32.

Compared with YQELLRVCCCNLGVNPDQVEKIRK, YQELLRVCCCWLGVNPDQVEKIRK is lower in protein stability index: 1.76 for the first, 1 for the second.

First: YQELLRVCCCKLGVNPDQVEKIRK
Second: YQELLRVCCCGLGVNPDQVEKIRK
The protein stability index of the first is higher: 2.89 for the first, 1.86 for the second.

Compared with YQELLRVCCCESGVNPDQVEKIRK, YQELLRVCCCEVGVNPDQVEKIRK is lower in protein stability index: 2.15 for the first, 1.64 for the second.

Going from YQELLRVCCCEDGVNPDQVEKIRK to YQELLRVCCCECGVNPDQVEKIRK, the protein stability index falls from 2.64 to 2.03.

Compared with YQELLRVCCCEEGVNPDQVEKIRK, YQELLRVCCCEHGVNPDQVEKIRK is lower in protein stability index: 2.75 for the first, 1.88 for the second.

First: YQELLRVCCCEFGVNPDQVEKIRK
Second: YQELLRVCCCEAGVNPDQVEKIRK
The protein stability index of the first is higher: 2.21 for the first, 1.78 for the second.

Compared with YQELLRVCCCEKGVNPDQVEKIRK, YQELLRVCCCENGVNPDQVEKIRK is higher in protein stability index: 2.49 for the first, 2.86 for the second.

Going from YQELLRVCCCEMGVNPDQVEKIRK to YQELLRVCCCEWGVNPDQVEKIRK, the protein stability index falls from 2.05 to 1.65.

Going from YQELLRVCCCEIGVNPDQVEKIRK to YQELLRVCCCEPGVNPDQVEKIRK, the protein stability index rises from 2.21 to 2.55.

Going from YQELLRVCCCEQGVNPDQVEKIRK to YQELLRVCCCEYGVNPDQVEKIRK, the protein stability index falls from 2.81 to 2.24.

Going from YQELLRVCCCEGGVNPDQVEKIRK to YQELLRVCCCERGVNPDQVEKIRK, the protein stability index falls from 2.31 to 1.7.

First: YQELLRVCCCELGVNPSQVEKIRK
Second: YQELLRVCCCELGVNPMQVEKIRK
The protein stability index of the first is higher: 2.4 for the first, 1.56 for the second.

Going from YQELLRVCCCELGVNPFQVEKIRK to YQELLRVCCCELGVNPGQVEKIRK, the protein stability index rises from 1.87 to 2.42.

Going from YQELLRVCCCELGVNPWQVEKIRK to YQELLRVCCCELGVNPRQVEKIRK, the protein stability index falls from 2.12 to 2.04.

Going from YQELLRVCCCELGVNPQQVEKIRK to YQELLRVCCCELGVNPNQVEKIRK, the protein stability index falls from 2.94 to 2.11.

First: YQELLRVCCCELGVNPCQVEKIRK
Second: YQELLRVCCCELGVNPVQVEKIRK
The protein stability index of the first is lower: 2.01 for the first, 2.73 for the second.

Going from YQELLRVCCCELGVNPLQVEKIRK to YQELLRVCCCELGVNPYQVEKIRK, the protein stability index rises from 1.59 to 2.01.

Going from YQELLRVCCCELGVNPTQVEKIRK to YQELLRVCCCELGVNPKQVEKIRK, the protein stability index falls from 2.42 to 1.69.

Compared with YQELLRVCCCELGVNPIQVEKIRK, YQELLRVCCCELIVNPDQVEKIRK is higher in protein stability index: 1.69 for the first, 1.78 for the second.

First: YQELLRVCCCELNVNPDQVEKIRK
Second: YQELLRVCCCELPVNPDQVEKIRK
The protein stability index of the first is lower: 1.78 for the first, 2.06 for the second.

Compared with YQELLRVCCCELKVNPDQVEKIRK, YQELLRVCCCELYVNPDQVEKIRK is lower in protein stability index: 1.62 for the first, 1.05 for the second.

Going from YQELLRVCCCELDVNPDQVEKIRK to YQELLRVCCCELEVNPDQVEKIRK, the protein stability index rises from 2.19 to 2.42.

Compared with YQELLRVCCCELLVNPDQVEKIRK, YQELLRVCCCELFVNPDQVEKIRK is lower in protein stability index: 1.62 for the first, 1.55 for the second.

First: YQELLRVCCCELVVNPDQVEKIRK
Second: YQELLRVCCCELHVNPDQVEKIRK
The protein stability index of the first is lower: 1.71 for the first, 1.79 for the second.

Compared with YQELLRVCCCELTVNPDQVEKIRK, YQELLRVCCCELAVNPDQVEKIRK is lower in protein stability index: 2.13 for the first, 2.08 for the second.

Compared with YQELLRVCCCELCVNPDQVEKIRK, YQELLRVCCCELWVNPDQVEKIRK is higher in protein stability index: 1.63 for the first, 2.84 for the second.

Going from YQELLRVCCCELSVNPDQVEKIRK to YQELLRVCCCELMVNPDQVEKIRK, the protein stability index falls from 3.16 to 2.01.

Going from YQELLRVCCCELQVNPDQVEKIRK to YQELLRVCCCELRVNPDQVEKIRK, the protein stability index rises from 1.57 to 1.66.
